This assay deals with LC8 (as used with syn-4mer) ( (S. cerevisiae or D. …, UniProt Q24117 1-89)). The assay is described as follows: ITC. Background: In ITC the heat of successive injections is recorded.

By Kd is commonly meant the equilibrium constant for the complex coming apart. Lower therefore signals tighter binding.

Chain of LC8 (as used with syn-4mer) ( (Q24117 whole entry): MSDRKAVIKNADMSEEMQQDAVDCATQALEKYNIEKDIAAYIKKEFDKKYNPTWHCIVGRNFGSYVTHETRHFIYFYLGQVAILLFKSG

B1: synthetic four-site IDP (syn-4mer) (designed binder)
chain: GSYGSRKAIDAATQTEPKETRKAIDAATQTEPKETRKAIDAATQTEPKETRKAIDAATQTEGSYGS
The molecule B1 displayed a Kd of around 40 nM.

The record behind these values is PMC9050902 (Journal of molecular biology, 2022).
